Data from patent publication US10597649B2, “Tau protease compositions and methods of use” (Oligomerix, Inc., priority 2011, dated 2020).

Assays:
Tau 4R2N = target: T1, Tau 4R2N (Homo sapiens, UniProt P10636); assay: Autoproteolytic activity of purified tau monomer, dimer and trimer (SDS-PAGE); assay type: biochemical
T1 construct: Stabilization buffer enables production of full length monomer, dimer and trimer for tau protease; made in house; host or cells: E. coli BL21 (DE3) Gold
Protocol: This example describes the identification of the autoproteolytic activity of tau oligomers.
Purified recombinant human tau 4R2N was prepared as described in the flow chart. Monomer, dimer and trimer species were purified preparative electrophoresis from a tau 4R2N preparation that had formed oligomers. The electrophoresis buffer contained 0.1% SDS which inhibited the proteolytic activity. Fractions containing the tau species were buffer exchanged into 25 mM Tris-HCl pH 7.4 using and Amicon ultrafiltration device (Merck Millipore, Billerica, Mass.), which led to restoration of tau autoproteolytic activity. Protein concentrations of the preparations were determined using the BCA kit (ThemoFisher Scientific). Samples were run on a pre-cast 4-20% polyacrylamide Tris-HCl gel (BioRad, Hercules, Calif.) without using reductant in order to visualize the disulfide mediated oligomers. The gel was stained with GelCodeBlue Safe (ThermoFisher Scientific, Rockford, Ill.). Lane 1: 5.2 μg of tau 4R2N oligomer standard; Lane 2: 2 microliter of monomer fraction before buffer exchange; Lane 3: 0.5 μg monomer after buffer exchange; Lane 4: […] of dimer fraction before buffer exchange; Lane 5: 0.5 μg dimer after buffer exchange; Lane 6: 20 μL trimer fraction before buffer exchange; Lane 7: 0.5 μg trimer after buffer exchange.
Tau 4R2N undergoes autoproteolytic cleavage (self-cleavage) when it forms disulfide-mediated oligomers upon incubation. Tau autoproteolyic activity co-purified with the dimer and trimer species. The amount of autoproteolytic activity was greatest with trimer which fragmented to the extent where no full size trimer remained after incubation. […] It was also shown that Tau autoproteolytic activity co-purified with dimer and trimer species. […] Full-length trimer digested completely into smaller fragments, and upon incubation, monomer formed an oligomeric ladder that produced a low level of autoproteolytic activity.
(§1) Monomer, Dimer, and Trimer of Tau 441 were purified under non-reducing conditions using continuous-elution electrophoresis. Fractions of each oligomer sample were pooled and buffer exchanged into stabilization buffer using an Amicon spin concentrator with a molecular weight cut-off of 30,000 daltons. 0.35 μg of each sample was incubated overnight at 37° C. while non-incubated control was kept on ice at 4° C. Next day, 2×SDS sample buffer without reductant was added to each sample and loaded onto a 4-20% gradient Tris-HCl Criterion Gel (Bio-Rad, Hercules, Calif.).
as §1, with “This example presents results from a contamination control study of tau protease. Monomer,” for “Monomer,”, “2× sodium dodecyl sulfate” for “2×SDS”
Lane 1—tau oligomer ladder standard; Lane 2—empty; Lane 3—purified monomer no incubation (fraction from purification plate); Lane 4—purified monomer without incubation; Lane 5—purified monomer with incubation; Lane 6—purified dimer without incubation; Lane 7—purified dimer with incubation; Lane 8—purified trimer without incubation; purified trimer with incubation overnight at 37° C. Lanes 3-9 were treated with sample buffer containing β-mercaptoethanol (BME).

[1] = test system: Human α-endorphin peptide; assay: Cleavage of α-endorphin peptide (HPLC); assay type: biochemical; settings: 20 hrs at 37° C.
Protocol: Human α-endorphin peptide [[…](SEQ ID NO:13) (Abbiotech, LLC, San Diego, Calif., USA)] was incubated at 37° C. for 20 hrs with or without […] tau 4R2N trimer protease, and analyzed by reverse phase HPLC (SystemGold® 32Karat™ LC-CE System, Beckman Coulter, Inc., Indianapolis, Ind., USA) using a linear gradient of acetonitrile in 0.1% TFA, 0-60% acetonitrile on an analytical C18 column (12.5 cm×2.1 mm, 5 μm (Supelco). The peptide was hypothesized to be cut by tau protease because it contains Lys-Ser in its sequence which is found at autocatalytic cleavage sites in tau. Two fragment peaks were produced as predicted by tau 4R2N trimer protease. […] The asterisk indicates an artifactual peak unrelated to the peptide;
12 μg of α-endorphin peptide (Anaspec, Fremont, Calif.) was incubated with 1.2 μg of tau 4R/2N trimer in reaction buffer (25 mM Tris-HCl pH 7.4) for 20 hrs at 37° C. Reverse phase HPLC was used to monitor the cleavage of the peptide. […] The asterisk indicates an artifact peak that is derived from the incubation tube.

T1 sequence (P10636 1-441 isoform P10636-8): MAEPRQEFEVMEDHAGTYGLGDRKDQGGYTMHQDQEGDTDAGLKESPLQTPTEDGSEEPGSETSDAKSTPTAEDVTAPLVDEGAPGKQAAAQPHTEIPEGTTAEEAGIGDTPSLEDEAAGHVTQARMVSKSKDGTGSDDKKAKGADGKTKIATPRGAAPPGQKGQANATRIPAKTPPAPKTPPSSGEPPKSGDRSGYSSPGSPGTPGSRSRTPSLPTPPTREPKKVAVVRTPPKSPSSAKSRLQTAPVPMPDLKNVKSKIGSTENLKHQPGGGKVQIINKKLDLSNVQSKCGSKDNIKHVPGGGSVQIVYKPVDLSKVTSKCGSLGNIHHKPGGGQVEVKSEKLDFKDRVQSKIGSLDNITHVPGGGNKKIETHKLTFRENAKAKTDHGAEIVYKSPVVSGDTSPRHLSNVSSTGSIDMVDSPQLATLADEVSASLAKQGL

tau 4R2N trimer: purified disulfide-mediated trimer species of recombinant human tau 4R2N
degradation in contamination control study (Example 3) (Tau 4R2N; 0.35 μg, overnight at 37° C., equal sample volumes from purification): preferentially degraded | autoproteolytic activity (Example 1) (Tau 4R2N; after buffer exchange into 25 mM Tris-HCl pH 7.4, incubation at 37° C.): greatest | cutting of α-endorphin peptide [1]: cuts α-endorphin peptide
